What is called EC50 is the concentration needed to bring the measured effect to its halfway point. The Kd is a measure of binding affinity in units of concentration. What is called IC50 is the midpoint of a concentration-inhibition curve.

The target in experiment [1] is His-tagged human CD40 (h-CD40-his) recombinant protein (human) (UniProt P25942). Description: ELISA, human CD40-his coated. On the technique in general: An ELISA detects its analyte on a solid surface through an enzyme-linked reagent.
For experiment [2] the target is unchanged. Description: Biacore X100, antibody captured by anti-human antibody on CM5 chip, CD40 antigen as analyte, 1:1 model. On the technique in general: In SPR one partner is held on a chip, and binding of the other changes the refractive index at the surface.
For experiment [3], the target named is human CD40 on HEK293 cells stably transfected with the human CD40 gene (HEK-Blue CD40L cells) (human) (UniProt P25942). Description: HEK293-CD40 cells binding; method not described.
Experiment [4] addresses His-tagged rhesus CD40 (rhesus-CD40-his) recombinant protein (rhesus) (UniProt F6SNI1). The experiment in a line: ELISA, rhesus CD40-his coated.
The target in experiment [5] is human CD40 on HEK293 cells stably transfected with the human CD40 gene (HEK-Blue CD40L cells) (human) (UniProt P25942). The experiment in a line: HEK293-CD40 cells binding; method not described. This is another data set of the same source.
The target in experiment [6] is His-tagged human CD40 (h-CD40-his) recombinant protein (human) (UniProt P25942). The experiment in a line: Biacore X100, antibody captured by anti-human antibody on CM5 chip, CD40 antigen as analyte, 1:1 model. This is another data set of the same source.
Experiment [7] concerns the target Fc-tagged human CD40 (h-CD40-Fc) recombinant protein (human) (UniProt P25942). The experiment in a line: hCD40/hCD40L blocking ELISA, CD40L as competitor.
For experiment [8], the target named is His-tagged human CD40 (h-CD40-his) recombinant protein (human) (UniProt P25942). The experiment in a line: ELISA, human CD40-his coated. This is another data set of the same source.
Experiment [9] has as its target Fc-tagged human CD40 (h-CD40-Fc) recombinant protein (human) (UniProt P25942). Description: hCD40/hCD40L blocking ELISA, CD40L as competitor. The source holds these as a separate data set.

Where two headings read alike, the source gives them in different places.

Chain of His-tagged human CD40 (h-CD40-his) recombinant protein (human) (P25942 21-193 limits assumed): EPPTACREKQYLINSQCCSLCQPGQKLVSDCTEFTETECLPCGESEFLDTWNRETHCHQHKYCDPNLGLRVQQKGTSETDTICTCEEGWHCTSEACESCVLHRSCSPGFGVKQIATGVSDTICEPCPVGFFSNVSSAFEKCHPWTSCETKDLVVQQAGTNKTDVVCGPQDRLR
Chain of human CD40 on HEK293 cells stably transfected with the human CD40 gene (HEK-Blue CD40L cells) (human) (P25942 21-277): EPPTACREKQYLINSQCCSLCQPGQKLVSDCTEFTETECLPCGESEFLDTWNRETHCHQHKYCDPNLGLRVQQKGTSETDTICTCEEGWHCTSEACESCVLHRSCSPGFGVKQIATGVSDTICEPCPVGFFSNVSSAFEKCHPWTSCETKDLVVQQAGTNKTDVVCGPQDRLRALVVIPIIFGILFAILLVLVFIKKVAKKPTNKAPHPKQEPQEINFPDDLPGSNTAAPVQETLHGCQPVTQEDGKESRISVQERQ
Chain of Fc-tagged human CD40 (h-CD40-Fc) recombinant protein (human) (P25942 21-193 limits assumed): as the sequence (P25942 21-193 limits assumed) above
Chain of His-tagged rhesus CD40 (rhesus-CD40-his) recombinant protein (rhesus) (F6SNI1 entry or part of it): as the sequence (P25942 21-193 limits assumed) above, with G43S, H56R, W89L, T92M, A95S, L101P, S106L, H142R, L172Q counted along it

B1: Alligator reference (hIgG1) (antibody, INN chains, looked up, V domains shown)
VH: EVQLLESGGGLVQPGGSLRLSCAASGFTFSTYGMHWVRQAPGKGLEWLSYISGGSSYIFYADSVRGRFTISRDNSENALYLQMNSLRAEDTAVYYCARILRGGSGMDLWGQGTLVTVSS
VL: QSVLTQPPSASGTPGQRVTISCTGSSSNIGAGYNVYWYQQLPGTAPKLLIYGNINRPSGVPDRFSGSKSGTSASLAISGLRSEDEADYYCAAWDKSISGLVFGGGTKLTVL
B1: the 50% effective concentration (EC50) in experiment [1] was 0.00129 µg/mL; in experiment [3] it was 0.397 µg/mL; in [4] it was 0.00124 µg/mL; in [5], 1.36 µg/mL; in experiment [8], 0.00329 µg/mL. For the same molecule, the Kd in [2] came to 65.9 nM; in experiment [6], 166 nM. In addition, the figures for the IC50 in experiment [7] and in experiment [9] were 0.723 µg/mL and 0.647 µg/mL, respectively.

These data come from US20200148778A1.
